IntAct's records for PubMed 24980795

B1: Serine/threonine-protein kinase PLK4 (Mus musculus), Q64702-1 (parent)
chain: MAACIGERIEDFKVGNLLGKGSFAGVYRAESIHTGLEVAIKMIDKKAMYKAGMVQRVQNEVKIHCQLKHPSVLELYNYFEDNNYVYLVLEMCHNGEMNRYLKNRMKPFSEREARHFMHQIITGMLYLHSHGILHRDLTLSNILLTRNMNIKIADFGLATQLNMPHEKHYTLCGTPNYISPEIATRSAHGLESDIWSLGCMFYTLLIGRPPFDTDTVKNTLNKVVLADYEMPAFLSREAQDLIHQLLRRNPADRLSLSSVLDHPFMSRNPSPKSKDVGTVEDSMDSGHATLSTTITASSGTSLSGSLLDRRLLVGQPLPNKITVFQKNKNSSDFSSGDGSNFCTQWGNPEQEANSRGRGRVIEDAEERPHSRYLRRAHSSDRASPSNQSRAKTYSVERCHSVEMLSKPRRSLDENQHSSNHHCLGKTPFPFADQTPQMEMVQQWFGNLQMNAHLGETNEHHTVSPNRDFQDYPDLQDTLRNAWTDTRASKNADTSANVHAVKQLSAMKYMSAHHHKPEVMPQEPGLHPHSEQSKNRSMESTLGYQKPTLRSITSPLIAHRLKPIRQKTKKAVVSILDSEEVCVELLRECASEGYVKEVLQISSDGTMITVYYPNDGRGFPLADRPPLPTDNISRYSFDNLPEKYWRKYQYASRFIQLVRSKTPKITYFTRYAKCILMENSPGADFEVWFYDGAKIHKTENLIHIIEKTGISYNLKNENEVTSLKEEVKVYMDHANEGHRICLSLESVISEEEKRSRGSSFFPIIVGRKPGNTSSPKALSAPPVDPSCCKGEQASASRLSVNSAAFPTQSPGLSPSTVTVEGLGHTATATGTGVSSSLPKSAQLLKSVFVKNVGWATQLTSGAVWVQFNDGSQLVVQAGVSSISYTSPDGQTTRYGENEKLPEYIKQKLQCLSSILLMFSNPTPNFQ
B2: Spindle-defective protein 2 (Caenorhabditis elegans), P91870 (parent)
chain: MEDDAPMNLCNEQFEEIEDSPIDDNDNESFYNADGDVELEEEEVHETPKNFKNGGRFKTNMTNPKVNDLTTIEEKNEDLRSAASSRSASRPASVMSDKSFSSQFEFQSGGENAIEEYTNQVFADENKADLLFPETSKFMNGASPPKDKHHSWEPSIHHYDKQPPPDIQTNSPVFGNLNHRKNKLIPQARAKPGANDNEIVERDNDENVPTTSDKSAFITSPMNSTNHDEKTSTPKRPTNRKIGQYQGPNFDLSSIYVGSPQHQNTSISTGQQMPTSSYSHAHSETMMTNQTINESMVRRVLNGNNKNQDLFAALEEARKRRAAQPSKPDFRINTTRTRVPIKPTSARHSGNVVSSTSNDNTTAASSKDLTTSRKAMETFRQNASMADATNSNTASMTSILSTISTARTDISRSSRNHGGGFSNTSVSTVIPANNGNVSLSHGRDGRDSVSSVRTMSRASSTSTVYAGSTFSGVSKPLRIHAKRVAFGCVAVGETLRVEVEVENISDRQCLVRASTDSTTPVYQILDNKLTMVDPKKSIKFQVSFSPSSVGRYQVIMSIEVPAQNFIHKIPMWGNGGIAKFVPTSPDLQQTINQSEYAMCTSCAKRISFKISNSAGTRDGFAMIKVFDSAMRQLPDGCVAFFPAPGFIVKKKSDKRVDIRIDSSYIDLHDENNFRTSSSLSTASTTSSFQRRILPGAKFFVHVVWGEETMRTRLRLLEVRTGQHQLIDGHDFTSFQFSDEEVLRAVPVGFPAIKPEDRDLFAASYRSFFINFFTSTTEFRAATSRKKKEICSNDDSTLLETTAFRNQTFVNDVTIVPNTRFSNRK
partner: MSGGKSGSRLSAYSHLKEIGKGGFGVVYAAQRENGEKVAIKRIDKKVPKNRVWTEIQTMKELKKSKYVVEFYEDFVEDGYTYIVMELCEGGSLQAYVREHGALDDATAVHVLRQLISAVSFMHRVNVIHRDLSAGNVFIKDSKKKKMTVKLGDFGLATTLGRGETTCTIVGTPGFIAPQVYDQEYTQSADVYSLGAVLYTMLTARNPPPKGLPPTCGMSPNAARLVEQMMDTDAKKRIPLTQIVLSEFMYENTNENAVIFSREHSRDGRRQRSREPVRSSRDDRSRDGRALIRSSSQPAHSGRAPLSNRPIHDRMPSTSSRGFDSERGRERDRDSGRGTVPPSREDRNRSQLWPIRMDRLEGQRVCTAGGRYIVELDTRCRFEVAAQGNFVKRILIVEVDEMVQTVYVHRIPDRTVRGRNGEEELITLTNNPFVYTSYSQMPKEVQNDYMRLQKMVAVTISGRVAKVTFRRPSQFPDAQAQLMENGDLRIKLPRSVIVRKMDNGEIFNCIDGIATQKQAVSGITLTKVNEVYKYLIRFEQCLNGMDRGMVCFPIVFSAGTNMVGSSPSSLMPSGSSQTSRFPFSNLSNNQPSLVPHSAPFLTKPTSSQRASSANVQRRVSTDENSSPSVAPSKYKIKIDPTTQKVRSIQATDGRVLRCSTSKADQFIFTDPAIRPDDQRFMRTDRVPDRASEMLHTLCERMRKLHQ
B3: Probable serine/threonine-protein kinase zyg-1 (Caenorhabditis elegans), Q9GT24 (parent)
chain: B2 partner
partner: B2 chain

Variants of: B1
Details: with Cep192, E9Q4Y4
Sequence of Cep192, E9Q4Y4 (E9Q4Y4 entry or part of it): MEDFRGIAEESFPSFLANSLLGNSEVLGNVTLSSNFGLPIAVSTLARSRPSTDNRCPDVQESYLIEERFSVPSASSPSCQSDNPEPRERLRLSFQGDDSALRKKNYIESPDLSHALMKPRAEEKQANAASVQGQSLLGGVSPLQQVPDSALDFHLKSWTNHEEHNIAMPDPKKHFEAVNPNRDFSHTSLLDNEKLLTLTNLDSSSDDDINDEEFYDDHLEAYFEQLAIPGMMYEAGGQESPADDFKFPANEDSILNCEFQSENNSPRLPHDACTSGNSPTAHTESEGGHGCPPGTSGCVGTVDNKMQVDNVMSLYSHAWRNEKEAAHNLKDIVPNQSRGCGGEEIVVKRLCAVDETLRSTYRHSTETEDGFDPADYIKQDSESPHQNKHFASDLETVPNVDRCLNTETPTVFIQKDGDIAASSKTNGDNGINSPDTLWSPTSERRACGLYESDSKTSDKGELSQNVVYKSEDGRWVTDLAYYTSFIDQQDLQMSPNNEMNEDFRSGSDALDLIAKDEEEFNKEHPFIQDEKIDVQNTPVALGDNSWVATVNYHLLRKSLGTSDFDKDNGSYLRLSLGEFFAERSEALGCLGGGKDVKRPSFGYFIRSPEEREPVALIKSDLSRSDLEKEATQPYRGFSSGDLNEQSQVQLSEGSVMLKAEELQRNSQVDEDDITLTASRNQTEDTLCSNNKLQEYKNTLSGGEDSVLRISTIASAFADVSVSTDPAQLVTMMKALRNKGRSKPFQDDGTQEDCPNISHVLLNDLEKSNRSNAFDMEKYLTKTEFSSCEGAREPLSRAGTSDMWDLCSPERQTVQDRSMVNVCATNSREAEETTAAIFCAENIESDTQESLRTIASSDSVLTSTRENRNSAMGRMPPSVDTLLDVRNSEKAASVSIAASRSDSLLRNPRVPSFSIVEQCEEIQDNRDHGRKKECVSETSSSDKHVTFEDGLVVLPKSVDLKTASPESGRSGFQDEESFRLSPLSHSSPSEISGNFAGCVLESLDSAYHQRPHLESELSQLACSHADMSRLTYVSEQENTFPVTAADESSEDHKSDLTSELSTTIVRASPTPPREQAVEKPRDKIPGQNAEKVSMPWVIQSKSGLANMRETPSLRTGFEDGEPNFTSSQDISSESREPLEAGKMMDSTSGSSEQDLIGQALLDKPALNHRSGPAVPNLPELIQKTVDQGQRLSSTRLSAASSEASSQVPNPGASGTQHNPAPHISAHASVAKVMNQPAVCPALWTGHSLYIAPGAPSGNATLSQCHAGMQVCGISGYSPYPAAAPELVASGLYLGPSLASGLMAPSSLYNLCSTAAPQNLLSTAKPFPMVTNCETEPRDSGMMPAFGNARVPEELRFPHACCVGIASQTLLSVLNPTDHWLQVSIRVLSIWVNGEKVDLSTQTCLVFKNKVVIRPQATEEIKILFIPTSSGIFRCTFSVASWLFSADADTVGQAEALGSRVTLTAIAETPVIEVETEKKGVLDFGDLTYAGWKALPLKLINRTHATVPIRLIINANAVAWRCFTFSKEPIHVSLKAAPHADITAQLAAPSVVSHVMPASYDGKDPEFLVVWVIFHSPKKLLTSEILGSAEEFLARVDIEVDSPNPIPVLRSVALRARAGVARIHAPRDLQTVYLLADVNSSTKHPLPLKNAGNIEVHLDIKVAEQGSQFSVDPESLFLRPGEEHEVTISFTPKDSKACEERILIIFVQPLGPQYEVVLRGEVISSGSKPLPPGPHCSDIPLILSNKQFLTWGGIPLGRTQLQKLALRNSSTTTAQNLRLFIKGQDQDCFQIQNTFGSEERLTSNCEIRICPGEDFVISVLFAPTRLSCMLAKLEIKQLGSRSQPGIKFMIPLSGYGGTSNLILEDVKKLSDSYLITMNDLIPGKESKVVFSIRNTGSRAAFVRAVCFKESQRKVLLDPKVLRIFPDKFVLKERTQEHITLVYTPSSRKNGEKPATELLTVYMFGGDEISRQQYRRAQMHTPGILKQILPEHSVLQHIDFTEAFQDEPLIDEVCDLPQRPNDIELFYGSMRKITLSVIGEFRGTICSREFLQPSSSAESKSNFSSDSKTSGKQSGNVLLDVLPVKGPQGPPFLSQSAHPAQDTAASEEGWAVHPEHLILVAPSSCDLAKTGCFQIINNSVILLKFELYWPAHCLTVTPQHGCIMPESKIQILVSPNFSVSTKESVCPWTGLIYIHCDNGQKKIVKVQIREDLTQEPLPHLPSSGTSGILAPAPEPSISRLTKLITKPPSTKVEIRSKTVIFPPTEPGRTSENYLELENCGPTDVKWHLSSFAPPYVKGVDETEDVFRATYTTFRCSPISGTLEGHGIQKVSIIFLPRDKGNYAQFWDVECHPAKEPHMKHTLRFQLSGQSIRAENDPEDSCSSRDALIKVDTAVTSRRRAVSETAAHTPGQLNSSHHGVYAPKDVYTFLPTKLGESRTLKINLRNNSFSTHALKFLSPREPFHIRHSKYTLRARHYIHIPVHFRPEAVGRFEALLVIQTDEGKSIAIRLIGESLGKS

**Q.** With R564E;K566E as the variant, how does the “effect of a mutation on the interaction” value read?
**A.** The value was “increasing interaction strength”.

**Q.** How did the “effect of a mutation on the interaction” value turn out when K660E was run?
**A.** Its value is “increasing interaction strength”.

**Q.** How did the “effect of a mutation on the interaction” value turn out when K672E was run?
**A.** Its value is “decreasing interaction strength”.

**Q.** With K693E as the variant, how does the “effect of a mutation on the interaction” value read?
**A.** Its value is “decreasing interaction strength”.

**Q.** How did the “effect of a mutation on the interaction” value turn out when R766E;K767E was run?
**A.** The value was “decreasing interaction strength”.

Variants of: B1
Details: with ce152_mouse Cep152, A2AUM9
Sequence of ce152_mouse Cep152, A2AUM9 (A2AUM9 whole entry): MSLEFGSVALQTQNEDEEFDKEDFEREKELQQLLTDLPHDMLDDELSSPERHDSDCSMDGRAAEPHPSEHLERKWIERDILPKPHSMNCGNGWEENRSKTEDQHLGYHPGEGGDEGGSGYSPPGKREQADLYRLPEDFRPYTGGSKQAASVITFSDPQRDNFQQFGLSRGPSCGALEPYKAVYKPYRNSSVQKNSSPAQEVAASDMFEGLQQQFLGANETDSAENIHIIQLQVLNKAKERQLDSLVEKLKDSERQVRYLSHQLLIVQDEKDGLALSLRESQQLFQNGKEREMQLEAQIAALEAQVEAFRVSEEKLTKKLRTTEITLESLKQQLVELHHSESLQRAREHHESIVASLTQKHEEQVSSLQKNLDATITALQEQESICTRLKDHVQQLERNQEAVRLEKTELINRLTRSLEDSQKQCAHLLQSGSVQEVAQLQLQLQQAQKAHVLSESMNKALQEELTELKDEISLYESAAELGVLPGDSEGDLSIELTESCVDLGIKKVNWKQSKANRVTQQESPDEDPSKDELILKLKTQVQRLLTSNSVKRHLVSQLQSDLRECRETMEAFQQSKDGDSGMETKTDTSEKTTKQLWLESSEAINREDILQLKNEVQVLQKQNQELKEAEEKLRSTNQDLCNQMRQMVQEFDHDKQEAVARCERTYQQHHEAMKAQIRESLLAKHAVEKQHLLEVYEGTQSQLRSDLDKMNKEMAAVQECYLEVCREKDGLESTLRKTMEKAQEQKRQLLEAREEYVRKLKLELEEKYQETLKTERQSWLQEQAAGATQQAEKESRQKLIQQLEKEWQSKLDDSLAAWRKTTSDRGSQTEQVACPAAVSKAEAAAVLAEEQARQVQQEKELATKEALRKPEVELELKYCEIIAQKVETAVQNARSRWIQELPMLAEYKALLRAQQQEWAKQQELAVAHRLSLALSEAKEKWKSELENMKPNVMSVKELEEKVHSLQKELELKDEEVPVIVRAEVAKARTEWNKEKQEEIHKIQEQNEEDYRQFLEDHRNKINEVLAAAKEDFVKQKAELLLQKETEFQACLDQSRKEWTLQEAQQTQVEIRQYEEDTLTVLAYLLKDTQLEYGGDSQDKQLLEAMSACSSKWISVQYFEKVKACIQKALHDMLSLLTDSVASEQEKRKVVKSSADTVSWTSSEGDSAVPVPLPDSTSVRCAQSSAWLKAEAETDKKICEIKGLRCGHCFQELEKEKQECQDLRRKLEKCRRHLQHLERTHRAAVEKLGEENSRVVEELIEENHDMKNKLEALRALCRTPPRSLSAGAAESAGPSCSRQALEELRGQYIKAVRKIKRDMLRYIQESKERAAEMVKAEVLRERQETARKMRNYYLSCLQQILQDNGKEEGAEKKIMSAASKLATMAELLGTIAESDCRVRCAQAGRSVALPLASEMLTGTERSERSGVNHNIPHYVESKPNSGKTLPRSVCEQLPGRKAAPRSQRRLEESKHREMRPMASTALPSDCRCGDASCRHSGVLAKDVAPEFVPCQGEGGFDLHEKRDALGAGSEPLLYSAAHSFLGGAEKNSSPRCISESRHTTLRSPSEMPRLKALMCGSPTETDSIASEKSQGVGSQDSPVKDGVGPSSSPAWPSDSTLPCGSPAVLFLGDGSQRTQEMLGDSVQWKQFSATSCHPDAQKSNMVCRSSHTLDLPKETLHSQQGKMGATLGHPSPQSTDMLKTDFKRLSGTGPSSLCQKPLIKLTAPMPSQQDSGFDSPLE

**Q.** K660E was tested. Which “effect of a mutation on the interaction” value did it give?
**A.** The value was “decreasing interaction strength”.

**Q.** For K672E, which “effect of a mutation on the interaction” value is on record?
**A.** Its value is “decreasing interaction strength”.

**Q.** With K693E as the variant, how does the “effect of a mutation on the interaction” value read?
**A.** Its value is “decreasing interaction strength”.

**Q.** With R766E;K767E as the variant, how does the “effect of a mutation on the interaction” value read?
**A.** Its value is “decreasing interaction strength”.

**Q.** For K568E;K569E, which “effect of a mutation on the interaction” value is on record?
**A.** The value was “increasing interaction strength”.

**Q.** For R652E, which “effect of a mutation on the interaction” value is on record?
**A.** The value was “decreasing interaction strength”.

Variants of: B2
Details: with zyg1_caeel zyg-1, Q9GT24

**Q.** With E12K;E15K;E16K;E18K;D19K as the variant, how does the “effect of a mutation on the interaction” value read?
**A.** The value was “disrupting interaction strength”.

**Q.** For E38K;E40K;E41K;E42K;E43K, which “effect of a mutation on the interaction” value is on record?
**A.** The value was “disrupting interaction strength”.

Variants of: B2
Details: with zyg1_caeel zyg-1, Q9GT24
Remark: another data set of the same source

**Q.** For E38K;E40K;E41K;E42K;E43K, which “effect of a mutation on the interaction” value is on record?
**A.** Its value is “decreasing interaction strength”.

**Q.** How did the “effect of a mutation on the interaction” value turn out when D26K;E28K;D34K;D36K was run?
**A.** Its value is “decreasing interaction strength”.

Variants of: B3
Details: with spd2_caeel spd-2, P91870

**Q.** K454E was tested. Which “effect of a mutation on the interaction” value did it give?
**A.** The value was “decreasing interaction strength”.

**Q.** How did the “effect of a mutation on the interaction” value turn out when R470E was run?
**A.** Its value is “decreasing interaction strength”.

**Q.** For R463E, which “effect of a mutation on the interaction” value is on record?
**A.** The value was “disrupting interaction strength”.

**Q.** For R471E, which “effect of a mutation on the interaction” value is on record?
**A.** The value was “decreasing interaction strength”.

**Q.** R489E;K491E was tested. Which “effect of a mutation on the interaction” value did it give?
**A.** Its value is “disrupting interaction strength”.

**Q.** R470E;R471E was tested. Which “effect of a mutation on the interaction” value did it give?
**A.** Its value is “disrupting interaction strength”.

**Q.** How did the “effect of a mutation on the interaction” value turn out when K500E was run?
**A.** Its value is “disrupting interaction strength”.
